Laboratory results as given in patent US20240376208A1 (AFFIMED, published 2024).
Read-outs that look alike come from different tables or passages of the source.

B1: scFv-IgAb_43 (bispecific antibody)
heavy: QVQLQESGPGLVKPSETLSLTCTVSGGSVSSGSYYWSWIRQPPGKGLEWIGYIYYSGSTNYNPSLKSRVTISVDTSKNQFSLKLSSVTAADTAVYYCARNPISIPAFDIWGQGTMVTVSSASTKGPSVFPLAPSSKSTSGGTAALGCLVKDYFPEPVTVSWNSGALTSGVHTFPAVLQSSGLYSLSSVVTVPSSSLGTQTYICNVNHKPSNTKVDKKVEPKSCDKTHTCPPCPAPEFEGGPSVFLFPPKPKDTLMISRTPEVTCVVVAVSHEDPEVKFNWYVDGVEVHNAKTKPREEQYNSTYRVVSVLTVLHQDWLNGKEYKCKVSNKALPAPIEKTISKAKGQPREPQVYTLPPSREEMTKNQVSLTCLVKGFYPSDIAVEWESNGQPENNYKTTPPVLDSDGSFFLYSKLTVDKSRWQQGNVFSCSVMHEALHNHYTQKSLSLSPGGGGGSGGGGSGGGGSGGGGSGGGGSGGGGSSYVLTQPSSVSVAPGQTATISCGGHNIGSKNVHWYQQRPGQSPVLVIYQDNKRPSGIPERFSGSNSGNTATLTISGTQAMDEADYYCQVWDNYSVLFGGGTKLTVLGGSGGSGGSGGSGGSGGSGGSQVQLVQSGAEVKKPGESLKVSCKASGYTFTSYYMHWVRQAPGQGLEWMGAIEPMYGSTSYAQKFQGRVTMTRDTSTSTVYMELSSLRSEDTAVYYCARGSAYYYDFADYWGQGTLVTVSS
light: QPVLTQPPSVSVAPGKTARITCGGNNIGSKSVHWYQQKPGQAPVLVIYYDSDRPSGIPERFSGSNSGNTATLTISRVEAGDEADYYCQVWDTSSDHVLFGGGTKLTVLGQPKAAPSVTLFPPSSEELQANKATLVCLISDFYPGAVTVAWKADSSPVKAGVETTTPSKQSNNKYAASSYLSLTPEQWKSHRSYSCQVTHEGSTVEKTVAPTECS
B2: aBi-scDb-Fc_05 (bispecific antibody)
chain 1: DKTHTCPPCPAPEFEGGPSVFLFPPKPKDTLMISRTPEVTCVVVAVSHEDPEVKFNWYVDGVEVHNAKTKPREEQYNSTYRVVSVLTVLHQDWLNGKEYKCKVSNKALPAPIEKTISKAKGQPREPQVYTLPPSREEMTKNQVSLTCLVKGFYPSDIAVEWESNGQPENNYKTTPPVLDSDGSFFLTSKLTVDKSRWQQGNVFSCSVMHEALHNHYTQKSLSLSPGGGGGSGGGGSSYVLTQPSSVSVAPGQTATISCGGHNIGSKNVHWYQQRPGQSPVLVIYQDNKRPSGIPERFSGSNSGNTATLTISGTQAMDEADYYCQVWDNYSVLFGGGTKLTVLGGSGGSQVQLVQSGAEVKKPGESLKVSCKASGYTFTSYYMHWVRQAPGQGLEWMGAIEPMYGSTSYAQKFQGRVTMTRDTSTSTVYMELSSLRSEDTAVYYCARGSAYYYDFADYWGQGTLVTVSSGGSGGSGGSGGSGGSGGSSYVLTQPSSVSVAPGQTATISCGGHNIGSKNVHWYQQRPGQSPVLVIYQDNKRPSGIPERFSGSNSGNTATLTISGTQAMDEADYYCQVWDNYSVLFGGGTKLTVLGGSGGSQVQLVQSGAEVKKPGESLKVSCKASGYTFTSYYMHWVRQAPGQGLEWMGAIEPMYGSTSYAQKFQGRVTMTRDTSTSTVYMELSSLRSEDTAVYYCARGSAYYYDFADYWGQGTLVTVSSAAAGSHHHHHH
chain 2: QVQLQESGPGLVKPSETLSLTCTVSGGSVSSGSYYWSWIRQPPGKGLEWIGYIYYSGSTNYNPSLKSRVTISVDTSKNQFSLKLSSVTAADTAVYYCARNPISIPAFDIWGQGTMVTVSSGGSGGSGGSGGSGGSGGSQPVLTQPPSVSVAPGKTARITCGGNNIGSKSVHWYQQKPGQAPVLVIYYDSDRPSGIPERFSGSNSGNTATLTISRVEAGDEADYYCQVWDTSSDHVLFGGGTKLTVLDKTHTCPPCPAPEFEGGPSVFLFPPKPKDTLMISRTPEVTCVVVAVSHEDPEVKFNWYVDGVEVHNAKTKPREEQYNSTYRVVSVLTVLHQDWLNGKEYKCKVSNKALPAPIEKTISKAKGQPREPQVYTLPPSREEMTKNQVSLYCLVKGFYPSDIAVEWESNGQPENNYKTTPPVLDSDGSFFLYSKLTVDKSRWQQGNVFSCSVMHEALHNHYTQKSLSLSPGGGGGSGGGGSSYVLTQPSSVSVAPGQTATISCGGHNIGSKNVHWYQQRPGQSPVLVIYQDNKRPSGIPERFSGSNSGNTATLTISGTQAMDEADYYCQVWDNYSVLFGGGTKLTVLGGSGGSQVQLVQSGAEVKKPGESLKVSCKASGYTFTSYYMHWVRQAPGQGLEWMGAIEPMYGSTSYAQKFQGRVTMTRDTSTSTVYMELSSLRSEDTAVYYCARGSAYYYDFADYWGQGTLVTVSSGGSGGSGGSGGSGGSGGSSYVLTQPSSVSVAPGQTATISCGGHNIGSKNVHWYQQRPGQSPVLVIYQDNKRPSGIPERFSGSNSGNTATLTISGTQAMDEADYYCQVWDNYSVLFGGGTKLTVLGGSGGSQVQLVQSGAEVKKPGESLKVSCKASGYTFTSYYMHWVRQAPGQGLEWMGAIEPMYGSTSYAQKFQGRVTMTRDTSTSTVYMELSSLRSEDTAVYYCARGSAYYYDFADYWGQGTLVTVSSGAAEPEA
notes: Asymmetric knob/hole Fc construct with four anti-CD16A Fv domains and only one anti-EGFR Fv domain; all other places print 158 and 159
B3: scFv-Fc-scDb_04 (bispecific antibody)
chain: QVQLQESGPGLVKPSETLSLTCTVSGGSVSSGSYYWSWIRQPPGKGLEWIGYIYYSGSTNYNPSLKSRVTISVDTSKNQFSLKLSSVTAADTAVYYCARNPISIPAFDIWGQGTMVTVSSGGSGGSGGSGGSGGSGGSQPVLTQPPSVSVAPGKTARITCGGNNIGSKSVHWYQQKPGQAPVLVIYYDSDRPSGIPERFSGSNSGNTATLTISRVEAGDEADYYCQVWDTSSDHVLFGGGTKLTVLGGGGSDKTHTCPPCPAPEFEGGPSVFLFPPKPKDTLMISRTPEVTCVVVAVSHEDPEVKFNWYVDGVEVHNAKTKPREEQYGSTYRVVSVLTVLHQDWLNGKEYKCKVSNKALPAPIEKTISKAKGQPREPQVYTLPPSREEMTKNQVSLTCLVKGFYPSDIAVEWESNGQPENNYKTTPPVLDSDGSFFLYSKLTVDKSRWQQGNVFSCSVMHEALHNHYTQKSLSLSPGGGGGSGGGGSSYELTQPLSVSVALGQTARITCGGHNIGSKNVHWYQQKPGQAPVLVIYQDNKRPSGIPERFSGSNSGNTATLTISRAQAGDEADYYCQVWDNYNVLFGCGTKLTVLGGSGGSQVQLVQSGAEVKKPGASVKVSCKASGYTFTSYYMHWVRQAPGQCLEWMGAIEPTYGSTSYAQKFQGRVTMTRDTSTSTVYMELSSLRSEDTAVYYCARGSAYYYDFADYWGQGTLVTVSSGGSGGSGGSGGSGGSGGSSYELTQPLSVSVALGQTARITCGGHNIGSKNVHWYQQKPGQAPVLVIYQDNKRPSGIPERFSGSNSGNTATLTISRAQAGDEADYYCQVWDNYNVLFGCGTKLTVLGGSGGSQVQLVQSGAEVKKPGASVKVSCKASGYTFTSYYMHWVRQAPGQCLEWMGAIEPTYGSTSYAQKFQGRVTMTRDTSTSTVYMELSSLRSEDTAVYYCARGSAYYYDFADYWGQGTLVTVSS

Tests used:
[1] = target: CD16A on primary human NK cells (human, UniProt P08637 17-254); assay: cell-based or functional assay
Chain of CD16A on primary human NK cells (P08637 17-254 limits assumed): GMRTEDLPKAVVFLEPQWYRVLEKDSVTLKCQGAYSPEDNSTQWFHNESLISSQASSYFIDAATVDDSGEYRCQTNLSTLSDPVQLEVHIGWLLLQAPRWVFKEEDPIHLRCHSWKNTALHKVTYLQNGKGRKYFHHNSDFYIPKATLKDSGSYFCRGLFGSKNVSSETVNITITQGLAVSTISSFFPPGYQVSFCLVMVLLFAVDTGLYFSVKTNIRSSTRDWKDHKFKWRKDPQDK

[2] = target: T1, EGFR on tumor target cells (MCF-7, Daudi, DK-MG, HCT-116) (UniProt P00533 25-1210, limits assumed); assay: cell-based or functional assay
[3] = target: T1, EGFR on tumor target cells (MCF-7, …); assay: cell-based or functional assay; remark: listed apart in the source
[4] = target: T1, EGFR on tumor target cells (MCF-7, …); assay: cell-based or functional assay; remark: listed apart in the source
[5] = target: T2, biotinylated dimeric CD16A antigen (human, UniProt P08637 17-208, limits assumed, biotinylated (site not stated)); assay: ELISA, biotinylated dimeric CD16A titrated on construct captured by coated His-tagged human EGFR extracellular domain
T2 construct: Soluble antigen; also called soluble CD16A antigen
T2 sequence (P08637 17-208 limits assumed): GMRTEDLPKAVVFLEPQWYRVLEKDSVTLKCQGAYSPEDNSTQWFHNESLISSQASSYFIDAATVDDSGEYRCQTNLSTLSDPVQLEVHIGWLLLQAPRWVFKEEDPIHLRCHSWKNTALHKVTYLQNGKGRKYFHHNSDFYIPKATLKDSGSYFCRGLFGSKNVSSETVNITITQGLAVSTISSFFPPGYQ
Description: (§1) For the capturing approach, 96-well ELISA plates (Immuno Maxisorp, Nunc) were coated overnight at 4° C. with His-tagged human EGFR or BCMA extracellular domain at concentrations of 3.0 or 0.4 μg/mL, respectively. After blocking with 3% (w/v) skimmed milk powder dissolved in phosphate buffered saline (PBS), antigen coated plates were used for capturing of different multivalent bispecific engagers at concentrations of 3-5 μg/mL in PBS containing 0.3% (w/v) skimmed milk powder. After washing three times with 300 μL per well of PBS containing 0.1% (v/v) Tween 20, plates were incubated with serial dilutions of biotinylated dimeric or monomeric CD16A antigen in PBS containing 0.3% (w/v) skimmed milk powder for 1.5 h at room temperature. After washing, plates were incubated with the detection conjugate Streptavidin HRP, 1:10,000 diluted in PBS containing 0.3% (w/v) skimmed milk powder for 1 h followed by washing and incubation with tetramethylbenzidine substrate (Seramun) for 1-2 min. Reaction was stopped by addition of 0.5 M H₂SO₄ (100 μL/well). Absorbance was measured at 450 nm using a multiwell plate reader, plotted and EC₅₀ values were determined by fitting a nonlinear regression model to sigmoidal dose-response curves (four parameters logistic fit) using GraphPad Prism software.
(§2) Concentration dependent binding of antibody constructs to coated recombinant CD16A antigen, or of soluble monomeric or dimeric CD16 antigen variants to coated or target antigen captured antibody constructs was analyzed in ELISA. Half maximal binding concentrations (EC₅₀) were determined by fitting a nonlinear regression model to sigmoidal dose-response curves (four parameters logistic fit) using GraphPad Prism software.

[6] = target: T3, recombinant CD16A 158F fused to monomeric human Fc (human, UniProt P08637 17-208); assay: ELISA, construct titrated on coated CD16A 158F fused to monomeric human Fc
T3 construct: also called recombinant CD16 antigen variant; not shown: monomeric human Fc
T3 sequence (P08637 17-208): as the sequence (P08637 17-208 limits assumed) above
Description: To assess binding of EGFR/CD16 or BCMA/CD16 antibodies to coated antigen in ELISA, 96-well ELISA plates (Immuno Maxisorp, Nunc) were coated overnight at 4° C. with recombinant CD16 antigen variants fused to monomeric human Fc at a concentration of 1.5 μg/mL in 100 mM carbonate-bicarbonate buffer. After blocking with 3% (w/v) skimmed milk powder dissolved in phosphate buffered saline (PBS) serial dilutions of bispecific antibody constructs were incubated on the antigen coated plates for 1.5 h at room temperature. […] After washing, plates were incubated with tetramethylbenzidine substrate (Seramun) for 1-2 min. Reaction was stopped by addition of 0.5 M H₂SO₄ (100 μL/well). Absorbance was measured at 450 nm using a multiwell plate reader, plotted and EC₅₀ values were determined by fitting a nonlinear regression model to sigmoidal dose-response curves (four parameters logistic fit) using GraphPad Prism software.
as §2

[7] = target: T4, biotinylated monomeric CD16A antigen (human, UniProt P08637 17-208, limits assumed, biotinylated (site not stated)); assay: ELISA, biotinylated monomeric CD16A titrated on construct captured by coated His-tagged human EGFR extracellular domain
T4 construct: Soluble antigen; also called soluble CD16A antigen
T4 sequence (P08637 17-208 limits assumed): as above
Description: as §1, §2

[8] = target: recombinant CD16A 158V fused to monomeric human Fc (human, UniProt P08637 17-208); assay: ELISA, construct titrated on coated CD16A 158V fused to monomeric human Fc
Chain of recombinant CD16A 158V fused to monomeric human Fc (P08637 17-208 F176V): as the sequence (P08637 17-208 limits assumed) above, with F160V counted along it

[9] = target: T2, biotinylated dimeric CD16A antigen; assay: ELISA, biotinylated dimeric CD16A titrated on coated construct
Description: as §1, §2

[10] = target: T4, biotinylated monomeric CD16A antigen; assay: ELISA, biotinylated monomeric CD16A titrated on coated construct
Description: as §1, §2

| Binder | EC50 [pM], 4 h calcein-release NK cell fratricide assay, E:T 1:1 [1] [pM] | Emax [%], 4 h calcein-release NK cell fratricide assay, E:T 1:1 [1] [%] | EC50 [pM], 4 h calcein-release cytotoxicity on MCF-7 target cells, NK cells E:T 5:1 [2] [pM] | Emax [%], 4 h calcein-release cytotoxicity on MCF-7 target cells, NK cells E:T 5:1 [2] [%] | Emax [%], 4 h calcein-release cytotoxicity on Daudi target cells, NK cells E:T 5:1 [3] [%] | EC50 [pM], 4 h calcein-release cytotoxicity on Daudi target cells, NK cells E:T 5:1 [4] [pM] | Emax [%], 4 h calcein-release cytotoxicity on Daudi target cells, NK cells E:T 5:1 [4] [%] | EC50 [5] [nM] | EC50 [6] [nM] | EC50 [7] [nM] | EC50 [8] [nM] | EC50 [9] [nM] | EC50 [10] [nM] |
| --- | --- | --- | --- | --- | --- | --- | --- | --- | --- | --- | --- | --- | --- |
| B1 | 3510 | 6.9 | 9.2 | 16.2 | 9.3 | 151 | 10 |  |  |  |  |  |  |
| B2 |  | 27.1 | 5 | 34.2 |  | 39.9 | 27.2 | 3 | 0.2 | 5.54 | 0.16 | 0.99 | 4.51 |
| B3 |  |  |  |  | 22.6 |  |  |  |  |  |  |  |  |
